Here are results for one substance from patent publication US20190184025A1.

The target of assay [1] is Rat EphA2, biotinylated (in house) (Rat) (UniProt D3ZBN3). The experiment in a line: SPR, biotinylated rat EphA2 on streptavidin. A general note: In SPR one partner is held on a chip, and binding of the other changes the refractive index at the surface.
In assay [2] the target is Human EphA2, biotinylated (in house) (Human) (UniProt P29317). In words: SPR, biotinylated human EphA2 on streptavidin.
In assay [3] the target is Mouse EphA2 Fc fusion (Mouse) (UniProt Q03145). The experiment in a line: SPR, mouse EphA2-Fc captured by anti-human IgG.
For assay [4], the target named is Mouse EphA2 (Ecto), C-terminal polyHis (Mouse) (UniProt Q03145). In words: FP competition against Reference Compound C (Study 2).
Sequence of Mouse EphA2 (Ecto), C-terminal polyHis (Mouse) (Q03145 26-538): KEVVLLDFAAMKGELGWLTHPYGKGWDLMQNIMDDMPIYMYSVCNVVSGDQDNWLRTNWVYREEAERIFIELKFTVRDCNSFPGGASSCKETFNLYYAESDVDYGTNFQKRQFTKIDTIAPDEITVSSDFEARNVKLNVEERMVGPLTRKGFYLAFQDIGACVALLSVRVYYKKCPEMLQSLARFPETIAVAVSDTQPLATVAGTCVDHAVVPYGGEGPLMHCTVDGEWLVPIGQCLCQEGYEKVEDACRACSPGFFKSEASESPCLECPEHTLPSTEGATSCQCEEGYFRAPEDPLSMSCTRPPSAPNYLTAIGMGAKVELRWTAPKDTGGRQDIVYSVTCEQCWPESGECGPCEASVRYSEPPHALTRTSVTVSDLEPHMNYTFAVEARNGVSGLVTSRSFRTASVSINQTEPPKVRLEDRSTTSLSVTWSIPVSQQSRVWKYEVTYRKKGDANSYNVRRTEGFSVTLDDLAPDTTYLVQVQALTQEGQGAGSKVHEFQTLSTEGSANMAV

Sequence of Mouse EphA2 Fc fusion (Mouse) (Q03145 26-535 limits assumed): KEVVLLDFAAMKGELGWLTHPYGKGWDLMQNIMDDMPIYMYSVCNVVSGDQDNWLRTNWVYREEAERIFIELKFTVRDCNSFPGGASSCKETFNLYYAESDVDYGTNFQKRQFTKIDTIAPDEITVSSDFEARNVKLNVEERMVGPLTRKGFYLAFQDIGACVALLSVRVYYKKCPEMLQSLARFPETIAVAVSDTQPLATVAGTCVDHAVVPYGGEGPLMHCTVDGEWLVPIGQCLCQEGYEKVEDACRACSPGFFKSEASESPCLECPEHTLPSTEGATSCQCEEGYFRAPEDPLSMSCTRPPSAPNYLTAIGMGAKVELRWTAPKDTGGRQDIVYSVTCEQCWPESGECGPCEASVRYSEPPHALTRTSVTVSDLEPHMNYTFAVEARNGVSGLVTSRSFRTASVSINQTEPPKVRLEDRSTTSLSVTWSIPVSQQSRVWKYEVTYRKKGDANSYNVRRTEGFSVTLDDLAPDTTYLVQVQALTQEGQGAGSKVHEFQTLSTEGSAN

As usually defined, the Kd is a measure of binding affinity in units of concentration. Read a high Kd as weaker binding. The term Ki denotes a measure of affinity in units of concentration, obtained from inhibition or displacement. The low end stands for tighter binding, the high end for weaker binding. For BCY6136 (peptide), the equilibrium dissociation constant (Kd) in assay [1] was determined as 2.96 nM; in assay [2] it was 1.17 nM; in assay [3], 2.53 nM. Further, the t1/2 in assay [1] was 12.6 min; in assay [2], 10 min; in assay [3], 10.4 min. In addition, the Ki in assay [4] worked out at 5.5 nM.
